The results in this text go back to patent US20230265183A1 (MABWELL SHANGHAI BIOSCIENCE, published 2023).

Usually EC50 stands for the concentration that produces a half-maximal response. Higher therefore signals lower potency in that assay. One may read the EC50 (read off the curve) as the midpoint of the concentration-response curve. A higher EC50 (read off the curve) goes with a less potent agent. By Kd is commonly meant a measure of binding affinity in units of concentration. Higher therefore signals lower affinity.

In experiment [1] the target is T1, human Nectin-4 (human, UniProt Q96NY8 32-510).
T1 sequence (looked up): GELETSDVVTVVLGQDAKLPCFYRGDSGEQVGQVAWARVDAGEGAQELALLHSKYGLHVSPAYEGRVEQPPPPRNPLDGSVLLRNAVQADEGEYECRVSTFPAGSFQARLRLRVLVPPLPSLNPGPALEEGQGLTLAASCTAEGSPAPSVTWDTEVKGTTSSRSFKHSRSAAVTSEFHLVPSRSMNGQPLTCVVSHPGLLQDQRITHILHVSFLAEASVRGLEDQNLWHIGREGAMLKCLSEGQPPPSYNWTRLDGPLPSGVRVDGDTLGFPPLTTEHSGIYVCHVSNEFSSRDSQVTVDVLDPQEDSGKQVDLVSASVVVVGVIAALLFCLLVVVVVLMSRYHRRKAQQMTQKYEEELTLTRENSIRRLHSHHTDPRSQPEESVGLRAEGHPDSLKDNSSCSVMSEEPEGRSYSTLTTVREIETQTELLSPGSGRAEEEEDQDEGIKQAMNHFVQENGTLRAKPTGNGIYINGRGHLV
Put plainly: cell-based or functional assay.

For experiment [2], the target named is T1, human Nectin-4. Kind of experiment: cell-based or functional assay. This is another data set of the same source.
Experiment [3] deals with T1, human Nectin-4. Kind of experiment: FACS on BT474 cells. The protocol:
(§1) The solutions of different concentrations were added to 384-well plates, 10 µl per well.
(§2) BT474 cells (breast cancer cells) expressing Nectin-4 on the cell surface were collected by centrifugation at 100 g at room temperature for 5 minutes, and then the cells were washed with PBS containing 0.5% BSA once and were centrifuged at 100 g at room temperature for 5 minutes. […] After incubation at 4° C. for 1 hour, fluorescently labeled goat anti-human IgG secondary antibody was added. After continued incubation at 4° C. for 1 hour, mean fluorescence readings of the cell populations were analyzed by a flow cytometer.

Experiment [4] concerns the target T1, human Nectin-4. Put plainly: FACS on BT474 cells. The protocol:
as §1, §2
The source holds these as a separate data set.

Experiment [5] deals with T2, murine Nectin4 (NP_082169) (murine, UniProt Q8R007 31-508).
T2 construct: whole, on cells; also called muNectin4
T2 sequence (looked up): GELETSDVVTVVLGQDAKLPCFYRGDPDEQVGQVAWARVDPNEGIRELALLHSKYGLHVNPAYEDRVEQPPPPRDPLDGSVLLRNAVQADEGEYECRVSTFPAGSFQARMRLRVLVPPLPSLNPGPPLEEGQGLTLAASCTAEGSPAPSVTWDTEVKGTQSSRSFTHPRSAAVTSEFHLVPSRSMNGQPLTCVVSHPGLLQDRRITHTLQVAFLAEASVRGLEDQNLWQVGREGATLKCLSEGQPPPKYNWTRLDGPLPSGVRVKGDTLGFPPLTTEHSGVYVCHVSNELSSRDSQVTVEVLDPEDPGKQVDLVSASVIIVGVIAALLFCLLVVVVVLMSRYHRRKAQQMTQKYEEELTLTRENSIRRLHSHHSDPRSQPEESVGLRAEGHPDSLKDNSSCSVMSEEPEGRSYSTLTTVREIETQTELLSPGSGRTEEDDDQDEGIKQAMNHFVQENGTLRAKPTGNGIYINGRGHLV
Kind of experiment: FACS on HEK-muNectin4 cells.

The target of experiment [6] is T3, human Nectin-4(C-6His), Novoprotein Cat# CJ19 (human, UniProt Q96NY8 32-349).
T3 construct: Bought protein; also called recombinant human Nectin4 protein; antigen Nectin-4
T3 sequence: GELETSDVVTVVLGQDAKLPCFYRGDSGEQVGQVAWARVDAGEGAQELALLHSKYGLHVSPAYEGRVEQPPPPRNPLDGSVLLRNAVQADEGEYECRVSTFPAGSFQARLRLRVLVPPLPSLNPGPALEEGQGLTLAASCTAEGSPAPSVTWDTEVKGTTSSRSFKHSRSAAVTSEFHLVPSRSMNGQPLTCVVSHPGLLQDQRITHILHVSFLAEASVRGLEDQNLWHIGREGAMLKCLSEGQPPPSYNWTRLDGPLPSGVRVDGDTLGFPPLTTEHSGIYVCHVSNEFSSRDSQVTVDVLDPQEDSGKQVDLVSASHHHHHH
Put plainly: ELISA, plate coated with 1 µg/ml human Nectin-4(C-6His), HRP-labelled secondary antibody, absorbance at 450 nm. The protocol: (§3) Plates were coated with 1 µg/ml of the antigens and incubated at 4° C. overnight; next, antibodies serially diluted were added into the plates. Finally, the HRP-labeled secondary antibody was added, and absorbance at 450 nm was detected.
(In an ELISA, binding on a coated surface is turned into a signal by an enzyme label.)

In experiment [7] the target is T4, human Nectin-1(C-6His), Novoprotein Cat# C492 (human, UniProt Q15223 31-334, limits assumed).
T4 sequence: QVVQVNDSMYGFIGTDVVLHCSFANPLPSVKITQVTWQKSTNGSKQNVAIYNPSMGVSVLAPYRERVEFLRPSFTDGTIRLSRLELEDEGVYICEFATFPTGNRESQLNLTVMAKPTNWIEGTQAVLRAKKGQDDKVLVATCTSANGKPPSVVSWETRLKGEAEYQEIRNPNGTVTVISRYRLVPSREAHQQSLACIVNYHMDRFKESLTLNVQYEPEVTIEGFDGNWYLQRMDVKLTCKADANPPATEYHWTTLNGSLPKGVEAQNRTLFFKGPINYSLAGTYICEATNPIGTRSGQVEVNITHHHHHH
Put plainly: ELISA, plate coated with 1 µg/ml human Nectin-1(C-6His), absorbance at 450 nm. The text names only a goat anti-rabbit HRP secondary antibody. The procedure: as §3

A further experiment has as its target T5, Cyno Nectin4 (Cyno, UniProt Q96NY8 32-510 (human entry)).
T5 construct: Expressed on HEK293 cells (HEK-cynoNectin4)
T5 chain: T1 sequence (looked up) with V39A, I230V, A437T
Kind of experiment: FACS on HEK-cynoNectin4 cells.

For experiment [8], the target named is T6, human Nectin-2(C-6His), Novoprotein Cat# C440 (human, UniProt Q92692 32-360, limits assumed).
T6 sequence: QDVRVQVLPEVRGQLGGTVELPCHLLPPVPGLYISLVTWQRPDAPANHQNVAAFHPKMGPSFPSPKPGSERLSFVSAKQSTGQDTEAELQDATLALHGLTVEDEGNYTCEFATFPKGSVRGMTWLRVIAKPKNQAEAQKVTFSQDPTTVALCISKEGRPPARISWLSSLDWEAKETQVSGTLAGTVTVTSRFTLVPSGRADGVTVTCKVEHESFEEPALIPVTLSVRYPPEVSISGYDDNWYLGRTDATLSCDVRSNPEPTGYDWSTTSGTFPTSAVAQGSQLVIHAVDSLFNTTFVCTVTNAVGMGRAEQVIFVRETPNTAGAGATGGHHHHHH
Put plainly: ELISA, plate coated with 1 µg/ml human Nectin-2(C-6His), absorbance at 450 nm. The text names only a goat anti-rabbit HRP secondary antibody. The protocol:
as §3

In experiment [9] the target is T1, human Nectin-4. Put plainly: FACS on CHO-huNectin4 S8 cells.
The target in another experiment is T7, His-tagged human NECTIN4 (human, UniProt Q96NY8 32-349).
T7 construct: Antigen of the BIAcore assay; also called antigen; recombinant NECTIN4 protein; not shown: His tag
T7 sequence: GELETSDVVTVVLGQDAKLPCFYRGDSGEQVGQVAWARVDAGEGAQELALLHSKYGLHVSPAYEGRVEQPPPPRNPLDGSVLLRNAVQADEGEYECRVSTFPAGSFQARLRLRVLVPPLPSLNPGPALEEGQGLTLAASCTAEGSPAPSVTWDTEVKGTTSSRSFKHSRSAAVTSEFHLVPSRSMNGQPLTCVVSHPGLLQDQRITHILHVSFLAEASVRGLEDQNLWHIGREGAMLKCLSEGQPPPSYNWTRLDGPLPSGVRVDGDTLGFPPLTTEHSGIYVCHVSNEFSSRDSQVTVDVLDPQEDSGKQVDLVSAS
Kind of experiment: SPR (BIAcore S200), antigen on CAP chip, antibody as analyte, 1:1 fit. The procedure:
Interactions between the antibodies and the antigen were measured using a BIAcore instrument S200 from GE. Referring to the instructions provided in Biotin Capture Kit from GE Healthcare, the analytical channel and the control sample channel on CAP sensor chip were first coupled with antigen i.e. His-tagged human NECTIN4, then samples containing antibodies (diluted 3-fold from an initial concentration of 20 nM respectively and solutions of each antibody of 8 concentrations were obtained totally, and the concentration 0.741 nM was set to be repeated) were allowed to flow through both the analytical channel and the sample channel, and the photoreactions upon antibody-antigen binding were measured. Association constant Kon and dissociation constant Koff and affinity constant KD of each antibody were finally obtained by instrument software fitting (1:1 binding mode) analysis.

Numbering of substitutions follows the chain as printed.

B1: murine antibody 30J3 (antibody, V domains shown)
VH: EVQLQQSGPDLVKPGASVKISCKASGYSFTDYYMHWVKQSRGKGLEWIGRVNPNNGNTLYNQKFRGKAILTVDKSSSTAYMELRSLTSDDSAVYYCAREDRYAFAYWGQGTLVTVSA
VL: DIVLTQSPASLAVSLGQRATISCRASQSVSTSSYTYMHWYQQKPGQPPKLLIKYASNLESGVPARFIGSGSGTDFTLNIHPVEEEDTATYYCQHTWEIPYTFGGGTKLEIK
notes: Murine monoclonal antibody from hybridoma; also called mIgG 30J3
With B1, in the experiment with human Nectin-4 [1], the “EC50 (ng/ml), inhibition of proliferation of BT474 cells” value came out at 16.9 ng/mL and the “Percentage of cell killing at the highest concentration” value turned out to be 52.8%. Further, the “Endocytosis efficiency (%)” value with human Nectin-4 [2] came out at 56%. In addition, it took 75 µg/mL to reach a half-maximal effect with human Nectin-4 [3] (EC50).

B2: murine antibody 5M21 (antibody, V domains shown)
VH: QVQLQQSGPELVKPGASVRITCKASGYTFTTYYIHWVKQRPGQGLEWIGWIYPGNVNTKYNEKFKGKATLTADKSSSTAYMQLSSLTSEDSAVYFCARGLYYFDYWGQGTTLTVSS
VL: SIVMTQTPKFLLVSAGDRLTITCKASQSVSNDVAWYQQKPGQSPKLLIYYASNRYTGVPDRFTGSGYGTDFTFTISTVQAEDLAVYFCQQDYSSPYTFGGGTKLEIK
notes: Murine monoclonal antibody from hybridoma; also called mIgG 5M21
As to B2, in the experiment with human Nectin-4 [1], the “EC50 (ng/ml), inhibition of proliferation of BT474 cells” value was 42.3 ng/mL and the “Percentage of cell killing at the highest concentration” value worked out at 33.5%. In the experiment with human Nectin-4 [2], the “Endocytosis efficiency (%)” value was 69%. Moreover, a half-maximal response in the experiment with human Nectin-4 [3] (EC50) required 25.4 µg/mL.

B3: murine antibody 20M12 (antibody, V domains shown)
VH: B2 VH with T21S, T31S, V56A, T58N, K63N, G99S, L100V
VL: B2 VL with I2V, L19V, Y55N, T74N
notes: Murine monoclonal antibody from hybridoma; also called mIgG 20M12
On to B3, for which, in the experiment with human Nectin-4 [4], the concentration for a half-maximal effect (EC50) is 83.8 µg/mL.

B4: 42D20 hz63 (antibody, V domains shown)
VH: QVQLQESGPGLVKPSETLSLTCTVSGFSLIDYGVSWIRQPPGKGLEWIGVIWGGGKIYYNSVLKSRVTISKDNSKSQVSLKLSSVTAADTAVYYCAKQGGLLFYAMDYWGQGTLVTVSS
VL: DIVMTQSPDSLAVSLGERATINCKSSQSLLNTYSQKNYLAWYQQKPGQSPKLLIYFASTRESGVPDRFSGSGSETDFTLTISSLQAEDLAVYFCQQHYNTPFTFGAGTKLELKR
notes: Humanized
On to B4, for which the EC50 is 4.7 µg/mL in [5], 2.45 to 4.06 µg/mL with Cyno Nectin4 and 0.946 µg/mL with human Nectin-4 [9]. For the same molecule, in experiment [6], the 50% effective concentration (EC50 (read off the curve)) was roughly 0.1 µg/mL. Also, the binding result was “no binding (tested: about 2.5 µg/ml (last point))” in experiment [7] and “no binding (tested: 10 µg/ml)” in [8]. The molecule also showed a Kd in the experiment with His-tagged human NECTIN4 of 1.8 nM.
